Source: US20060099646A1, “Bret assay” (priority 2002, published 2006)

Assays:
[1] = Precipitation / stability of diluted DeepBlueC substrate solution; type: physicochemical
Experimental: One of the problems associated with setting up an assay, such as, e.g. a high through-put screening (HTS) assay, is to prepare a suitable solution of the substrate, DeepBlueC™. If the stock solution of DeepBlueC™ is diluted to the relevant concentration for use in a BRET assay in D-PBS as recommended, it will form a precipitate within 10 to 20 minutes, making it virtually impossible to use for a HTS assay.
(§1) Assay: • 1. Dilution of DeepBlueC to 100 μM in 40% ethanol in D-PBS with 1000 mg/l L-Glucose (#14287) (light sensitive!!). The DeepBlueC™ stock solution comprises 1 mM DeepBlueC™ in 100% v/v EtOH.
(§2) The dilution of DeepBlueC in 40% ethanol/buffer is essential for the stability of DeepBlueC. If DeepBlueC is diluted in buffer alone, it will precipitate within 10 to 20 minutes, making it virtually impossible to use the assay in HTS mode. […] 100 μl of resuspended cells were transferred into wells in 96-well white optiplate plate • 3. 12 μl agonist was added. • 4. 5 μl of diluted DeepBlueC/well was added, and the plate was read.

renilla luciferase = experiment: Light emission from renilla luciferase after addition of DeepBlueC solution (FIG. 3)
Experimental: as §2

NK1 receptor = target: T1, NK1 receptor (Homo sapiens, UniProt P25103); experiment: BRET assay, NK1-Rluc / β-arrestin-2-GFP; type: cell-based; conditions: NK1 receptor (class B) coexpressed with β-arrestin mutant; versus WT; FIG. 2
T1 construct: expressed in transfected cells
Experimental: (§3) Cell Preparation for BRET Assay: • 1. 48 hrs after transfection with 2 μg receptor-Rluc DNA (e.g. NK1-Rluc or β2AR-Rluc) and 5 μg β-arrestin-2 DNA (e.g. the R393E; R395E mutant) (for assays with GRK also 2 μg GRK DNA, e.g. GRK-5) media was removed and cell washed 1× with PBS • 2. 1 ml 1× trypsin (T75 flask) was added and incubated 3-5 min at 37 C • 3. 10 mL complete media was added. • 4. Cells were transferred to tube and spun down (5 min, 800 rpm) • 5. Media was removed, and cells resuspended in 10 ml PBS and counted, spun down (5 min, 800 rpm) • 6. Resuspended in D-PBS with 1000 mg/l L-Glucose (#14287) to a density of 2×10^6 cells/ml • 7. Cells were left at room temperature for at least 30 min, to stabilize readings.
as §1
as §2, with “12 μl agonist was added. • 4.” left out
(§4) Antagonist: • 1. […] 6 μl of diluted DeepBlueC/well was added, and the plate read.

β2AR/Rluc receptor = target: T2, β2AR/Rluc receptor (Homo sapiens, UniProt P07550); experiment: β2AR internalization assay; type: cell-based; conditions: COS-7 cells, co-expressed with β2AR/Rluc; isopterenol 10 min at 37° C; versus WT β-arrestin; FIG. 1
T2 construct: expressed in transfected cells; host or cells: COS-7
Experimental: COS-7 cells in 75 cm^2 flask (3×10^6 cells/flask) were used for trasfection. β2AR/Rluc receptor (1.3 μg cDNA/flask) was coexpressed together with 6.5 μg GFP^2/β-arrestin 2, 6.5 μg GFP^2/β-arrestin R169E, 6.5 μg GFP^2/β-arrestin Lys 373 stop or 6.5 μg GFP^2/β-arrestin R393E, R395E. Receptor internalization assay was based on protocol described by Barak and Caron J Recept Signal Transduct Res 1995 January-March;15(14):677-90. At the end of transfection period (3-5 hours), cells were washed twice with PBS, trypsinesed and plated at a density of 2.5×10^5 cells per well in 12-well plates. After 48 hours, cells were washed once with assay medium (HEPES-modified DMEM with 0.1% BSA, pH 7.4) and serum-starved in the same medium for additional 2-3 hours before being stimulated with […] isopterenol for 10 min at 37° C. Stimulation was stopped by washing the cells with ice-cold PBS. Cells were then subjected to [^125I]-pindolol binding at 4° C. for 3 h and the fraction of internalized receptors determined relative to unstimulated cells. Non-specific binding was determined under the same conditions in the presence of 1 μM pindolol.

NK-1/Rluc receptor = target: T3, NK-1/Rluc receptor (Homo sapiens, UniProt P25103); experiment: NK-1 receptor internalization assay; type: cell-based; conditions: COS7 cells, co-expressed with NK-1/Rluc; 125I-SP 10 min at 37 C; versus WT β-arrestin; FIG. 1
T3 construct: expressed in transfected cells; host or cells: COS7
Experimental: COS7 cells in 75 cm^2 flask (3×10^6 cells/flask) were used for transfection. NK-1/Rluc receptor (2 μg cDNA/flask) was coexpressed together with 6 μg GFP/β-arrestin 2, 6 μg GFP^2/β-arrestin R169E, 6 μg GFP^2/β-arrestin Lys 373 stop or 6 μg GFP^2/β-arrestin R393E, R395E. At the end of transfection period (3-5 hours), cells were washed twice with PBS, trypsinased and plated at a density of 2.5×10^5 cells per well in 12-well plates. After 48 hours, cells were washed once with assay medium (HEPES-modified DMEM with 0.1% BSA, pH 7.4) and incubated in assay medium for at least 1 hour before being incubated with ^125I-labeled SP (30000 cpm/well) in 0.5 ml assay medium 10 min at 37 C. Cells were then transferred onto ice and washed twice with ice-cold PBS. Subsequently, the extracellular receptor-associated ligand was removed by washing once with 1 ml of acid solution (50 mM acetic acid and 150 mM NaCl, pH 2.8) for 12 min. The acid wash was collected to determine the surface-bound radioactivity, and the internalized radioactivity was determined after solubilizing the cells in 0.2 M NaOH and 1% SDS (NaOH/SDS) solution. Nonspecific binding for each time point was determined under the same conditions in the presence of 1 μM unlabeled agonist (SP). After subtraction of nonspecific binding, the internalized radioactivity was expressed as a percentage of the total binding.

β2AR receptor = target: T4, β2AR receptor (Homo sapiens, UniProt P07550); experiment: BRET assay, β2AR-Rluc / β-arrestin-2-GFP; type: cell-based; conditions: β2AR receptor (class A) coexpressed with β-arrestin mutant; versus WT; FIG. 2
T4 construct: expressed in transfected cells
Experimental: as §3, §1
as §2, with “12 μl agonist was added. • 4.” left out
as §4

T1 sequence (P25103 whole entry, species assumed): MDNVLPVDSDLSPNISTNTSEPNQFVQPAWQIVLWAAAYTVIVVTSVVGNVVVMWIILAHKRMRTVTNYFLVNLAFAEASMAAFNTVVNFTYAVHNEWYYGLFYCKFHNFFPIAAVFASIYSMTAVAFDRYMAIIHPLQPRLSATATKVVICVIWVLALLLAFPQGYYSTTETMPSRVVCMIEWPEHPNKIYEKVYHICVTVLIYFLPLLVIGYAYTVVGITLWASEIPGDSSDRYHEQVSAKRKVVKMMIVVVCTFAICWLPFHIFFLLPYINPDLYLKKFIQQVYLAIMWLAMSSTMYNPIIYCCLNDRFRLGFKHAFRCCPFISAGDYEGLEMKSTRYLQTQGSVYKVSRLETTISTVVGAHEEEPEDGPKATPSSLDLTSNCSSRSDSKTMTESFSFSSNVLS
T3 sequence (P25103 whole entry): as the sequence (P25103 whole entry, species assumed) above

Row | Compound | stability of diluted solution ([1]; diluted in 40% ethanol in D-PBS with 1000 mg/l L-Glucose) | time to formation of precipitate ([1]; stock solution diluted in D-PBS / buffer alone, no ethanol) [min] | stability of light emission signal (renilla luciferase; DeepBlueC dissolved in buffer with 0% ethanol) | stability of light emission signal (renilla luciferase; DeepBlueC dissolved in buffer with 6% ethanol) | stability of light emission signal (renilla luciferase; DeepBlueC dissolved in buffer with 40% ethanol) | specific BRET ratio (BRET signal) (NK1 receptor) | internalization of the β2AR (β2AR/Rluc receptor) | internalization of the NK1-R (NK-1/Rluc receptor) | specific BRET ratio (BRET signal) (β2AR receptor)
1 | O=c1c(Cc2ccccc2)nc2c(Cc3ccccc3)[nH]c(-c3ccccc3)cn1-2 [DeepBlueC] | stable for hours | 10 to 20 | rapidly decreases | rapidly decreases | stable for the duration of the experiment |  |  |  | 
2 | human β-arrestin-2 373 stop mutant: truncated human β-arrestin-2 lacking clathrin and/or AP2 binding sites; used as GFP fusion |  |  |  |  |  | the effect is less pronounced | inhibiting the internalization | inhibiting the internalization | increasing the BRET signal significantly
3 | human β-arrestin-2 R393E; R395E mutant: human β-arrestin-2 wherein amino acids 393 and 395 have been changed from arginine to glutamic acid; used as GFP fusion |  |  |  |  |  | the effect is less pronounced | inhibiting the internalization | inhibiting the internalization | increasing the BRET signal significantly
